Results published in PMC2213500 (The Journal of Experimental Medicine, 2000).

How the values were obtained:
[1] = molecular target: soluble wild-type HLA-DR1 (empty, no added peptide) (human); test: intrinsic tryptophan fluorescence
wtDR1 = wtDR1 (Homo sapiens, UniProt P01903+P01911, A100R/D57E/F55L/F60I/F76Y/I96L/L162R/M171V/P40L/Q125E/R42F/V115G/Y59C); assay type: binding

Chain of soluble HLA-DM (P28067 27-233): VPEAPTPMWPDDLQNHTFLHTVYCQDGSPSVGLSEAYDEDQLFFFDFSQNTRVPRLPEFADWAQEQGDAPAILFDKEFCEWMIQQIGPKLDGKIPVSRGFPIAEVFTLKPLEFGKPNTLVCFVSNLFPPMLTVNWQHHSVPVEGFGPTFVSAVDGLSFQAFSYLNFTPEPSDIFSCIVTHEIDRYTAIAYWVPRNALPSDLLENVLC
Chain of soluble HLA-DM (P28068 19-218): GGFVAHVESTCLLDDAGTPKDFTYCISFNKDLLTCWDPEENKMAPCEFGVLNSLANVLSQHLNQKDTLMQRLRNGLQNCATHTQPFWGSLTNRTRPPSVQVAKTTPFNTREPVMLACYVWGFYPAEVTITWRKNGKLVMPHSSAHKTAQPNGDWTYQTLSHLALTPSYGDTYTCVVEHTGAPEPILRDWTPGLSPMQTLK

soluble HLA-DM (from UniProt P28067;P28068) (complex)
increase of tryptophan fluorescence on mixing [1]: 10 to 12%

CLSPFPFDL
DR1 binding of control peptide (wtDR1): non–DR1-binding
